In patent publication US20200317768A1 (published 2020):

T1: cynomolgus monkey FcγRIIb extracellular domain with C-terminal His-tag (cynomolgus monkey)
T1 construct: also called cyno FcgRIIb; cynoFcγRIIb
T1 chain: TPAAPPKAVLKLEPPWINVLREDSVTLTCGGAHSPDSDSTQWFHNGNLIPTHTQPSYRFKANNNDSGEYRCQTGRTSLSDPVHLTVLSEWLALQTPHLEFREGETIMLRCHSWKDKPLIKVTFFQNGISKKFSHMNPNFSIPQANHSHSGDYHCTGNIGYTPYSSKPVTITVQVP

B1: M103205H795-MY387/M103202L889-SK1 (antibody, human IgG1, kappa)
heavy: QVTLKESGPVLVKPTETLTLTCTVSGIDLSHDDISWVRQAPGKGLEWVGIISYAGSTYYASWAKGRLTISKDTSKNQVVLTMTNMDPVDTATYYCARGVPAYSHGGDLWGQGTLVTVSSASTKGPSVFPLAPSSKSTSGGTAALGCLVKDYFPEPVTVSWNSGALTSGVHTFPAVLQSSGLYSLSSVVTVPSSSLGTQTYICNVNHKPSNTKVDKKVEPKSCDKTHTCPPCPAPELLTGPVVFLFPPKPKDTLMISRTPEVTCVVVDVSDEDPEVKFNWYVDGVEVHNAKTKPREEQYNSTYRVVSVLTVLHQDWLNGKEYKCKVSNKALPKPIEKTISKAKGQPREPQVYTLPPSREEMTKNQVSLTCLVKGFYPSDIAVEWESNGQPENNYKTTPPVLDSDGSFFLYSKLTVDKSRWQQGNVFSCSVMHEALHNHYTQKSLSLSP
light: DIVMTQSPATLSLSPGERATLSCTSSQSVYHANWLSWFQQKPGQPPKLLIYWASTLAYGVPSRFSGSGSGTDFTLTISSLQPEDAATYYCAGGYGGGRYAFGQGTKVEIKRTVAAPSVFIFPPSDEQLKSGTASVVCLLNNFYPREAKVQWKVDNALQSGNSQESVTEQDSKDSTYSLSSTLTLSKADYEKHKVYACEVTHQGLSSPVTKSFNRGEC
notes: Substitutions introduced into M103205H795-SG1, expressed with M103202L889-SK1 as light chain; EU numbering
B2: M103205H795-MY400/M103202L889-SK1 (antibody, human IgG1, kappa)
heavy: QVTLKESGPVLVKPTETLTLTCTVSGIDLSHDDISWVRQAPGKGLEWVGIISYAGSTYYASWAKGRLTISKDTSKNQVVLTMTNMDPVDTATYYCARGVPAYSHGGDLWGQGTLVTVSSASTKGPSVFPLAPSSKSTSGGTAALGCLVKDYFPEPVTVSWNSGALTSGVHTFPAVLQSSGLYSLSSVVTVPSSSLGTQTYICNVNHKPSNTKVDKKVEPKSCDKTHTCPPCPAPELLTGPSVFLFPPKPKDTLMISRTPEVTCVVVDVSDEDPEVKFNWYVDGVEVHNAKTKPREEQYNSTYRVVSVLTVLHQDWLNGKEYKCKVSNKALPKEIEKTISKAKGQPREPQVYTLPPSREEMTKNQVSLTCLVKGFYPSDIAVEWESNGQPENNYKTTPPVLDSDGSFFLYSKLTVDKSRWQQGNVFSCSVMHEALHNHYTQKSLSLSP
light: DIVMTQSPATLSLSPGERATLSCTSSQSVYHANWLSWFQQKPGQPPKLLIYWASTLAYGVPSRFSGSGSGTDFTLTISSLQPEDAATYYCAGGYGGGRYAFGQGTKVEIKRTVAAPSVFIFPPSDEQLKSGTASVVCLLNNFYPREAKVQWKVDNALQSGNSQESVTEQDSKDSTYSLSSTLTLSKADYEKHKVYACEVTHQGLSSPVTKSFNRGEC
notes: as for B1
B3: M103205H795-MY392/M103202L889-SK1 (antibody, human IgG1, kappa)
heavy: QVTLKESGPVLVKPTETLTLTCTVSGIDLSHDDISWVRQAPGKGLEWVGIISYAGSTYYASWAKGRLTISKDTSKNQVVLTMTNMDPVDTATYYCARGVPAYSHGGDLWGQGTLVTVSSASTKGPSVFPLAPSSKSTSGGTAALGCLVKDYFPEPVTVSWNSGALTSGVHTFPAVLQSSGLYSLSSVVTVPSSSLGTQTYICNVNHKPSNTKVDKKVEPKSCDKTHTCPPCPAPELLTGPSVFLFPPKPKDTLMISRTPEVTCVVVDVSDEDPEVKFNWYVDGVEVHNAKTKPREEQYNLTYRVVSVLTVLHQDWLNGKEYKCKVSNKALPKPIEKTISKAKGQPREPQVYTLPPSREEMTKNQVSLTCLVKGFYPSDIAVEWESNGQPENNYKTTPPVLDSDGSFFLYSKLTVDKSRWQQGNVFSCSVMHEALHNHYTQKSLSLSP
light: DIVMTQSPATLSLSPGERATLSCTSSQSVYHANWLSWFQQKPGQPPKLLIYWASTLAYGVPSRFSGSGSGTDFTLTISSLQPEDAATYYCAGGYGGGRYAFGQGTKVEIKRTVAAPSVFIFPPSDEQLKSGTASVVCLLNNFYPREAKVQWKVDNALQSGNSQESVTEQDSKDSTYSLSSTLTLSKADYEKHKVYACEVTHQGLSSPVTKSFNRGEC
notes: as for B1
B4: M103205H795-MY516/M103202L889-SK1 (antibody, human IgG1, kappa)
heavy: QVTLKESGPVLVKPTETLTLTCTVSGIDLSHDDISWVRQAPGKGLEWVGIISYAGSTYYASWAKGRLTISKDTSKNQVVLTMTNMDPVDTATYYCARGVPAYSHGGDLWGQGTLVTVSSASTKGPSVFPLAPSSKSTSGGTAALGCLVKDYFPEPVTVSWNSGALTSGVHTFPAVLQSSGLYSLSSVVTVPSSSLGTQTYICNVNHKPSNTKVDKKVEPKSCDKTHTCPPCPAPELLTGPVVFLFPPKPKDTLMISRTPEVTCVVVDVSDEDPEVKFNWYVDGVEVHNAKTKPREELYNLTYRVVSVLTVLHQDWLNGKEYKCKVSNKALPKPIEKTISKAKGQPREPQVYTLPPSREEMTKNQVSLTCLVKGFYPSDIAVEWESNGQPENNYKTTPPVLDSDGSFFLYSKLTVDKSRWQQGNVFSCSVMHEALHNHYTQKSLSLSP
light: DIVMTQSPATLSLSPGERATLSCTSSQSVYHANWLSWFQQKPGQPPKLLIYWASTLAYGVPSRFSGSGSGTDFTLTISSLQPEDAATYYCAGGYGGGRYAFGQGTKVEIKRTVAAPSVFIFPPSDEQLKSGTASVVCLLNNFYPREAKVQWKVDNALQSGNSQESVTEQDSKDSTYSLSSTLTLSKADYEKHKVYACEVTHQGLSSPVTKSFNRGEC
notes: as for B1
B5: M103205H795-MY515/M103202L889-SK1 (antibody, human IgG1, kappa)
heavy: QVTLKESGPVLVKPTETLTLTCTVSGIDLSHDDISWVRQAPGKGLEWVGIISYAGSTYYASWAKGRLTISKDTSKNQVVLTMTNMDPVDTATYYCARGVPAYSHGGDLWGQGTLVTVSSASTKGPSVFPLAPSSKSTSGGTAALGCLVKDYFPEPVTVSWNSGALTSGVHTFPAVLQSSGLYSLSSVVTVPSSSLGTQTYICNVNHKPSNTKVDKKVEPKSCDKTHTCPPCPAPELLTGPSVFLFPPKPKDTLMISRTPEVTCVVVDVSDEDPEVKFNWYVDGVEVHNAKTKPREELYNLTYRVVSVLTVLHQDWLNGKEYKCKVSNKALPKPIEKTISKAKGQPREPQVYTLPPSREEMTKNQVSLTCLVKGFYPSDIAVEWESNGQPENNYKTTPPVLDSDGSFFLYSKLTVDKSRWQQGNVFSCSVMHEALHNHYTQKSLSLSP
light: DIVMTQSPATLSLSPGERATLSCTSSQSVYHANWLSWFQQKPGQPPKLLIYWASTLAYGVPSRFSGSGSGTDFTLTISSLQPEDAATYYCAGGYGGGRYAFGQGTKVEIKRTVAAPSVFIFPPSDEQLKSGTASVVCLLNNFYPREAKVQWKVDNALQSGNSQESVTEQDSKDSTYSLSSTLTLSKADYEKHKVYACEVTHQGLSSPVTKSFNRGEC
notes: as for B1
B6: M103205H795-MY514/M103202L889-SK1 (antibody, human IgG1, kappa)
heavy: QVTLKESGPVLVKPTETLTLTCTVSGIDLSHDDISWVRQAPGKGLEWVGIISYAGSTYYASWAKGRLTISKDTSKNQVVLTMTNMDPVDTATYYCARGVPAYSHGGDLWGQGTLVTVSSASTKGPSVFPLAPSSKSTSGGTAALGCLVKDYFPEPVTVSWNSGALTSGVHTFPAVLQSSGLYSLSSVVTVPSSSLGTQTYICNVNHKPSNTKVDKKVEPKSCDKTHTCPPCPAPELLTGPVVFLFPPKPKDTLMISRTPEVTCVVVDVSDEDPEVKFNWYVDGVEVHNAKTKPREEQYNLTYRVVSVLTVLHQDWLNGKEYKCKVSNKALPKPIEKTISKAKGQPREPQVYTLPPSREEMTKNQVSLTCLVKGFYPSDIAVEWESNGQPENNYKTTPPVLDSDGSFFLYSKLTVDKSRWQQGNVFSCSVMHEALHNHYTQKSLSLSP
light: DIVMTQSPATLSLSPGERATLSCTSSQSVYHANWLSWFQQKPGQPPKLLIYWASTLAYGVPSRFSGSGSGTDFTLTISSLQPEDAATYYCAGGYGGGRYAFGQGTKVEIKRTVAAPSVFIFPPSDEQLKSGTASVVCLLNNFYPREAKVQWKVDNALQSGNSQESVTEQDSKDSTYSLSSTLTLSKADYEKHKVYACEVTHQGLSSPVTKSFNRGEC
notes: as for B1
B7: M103205H795-MY388/M103202L889-SK1 (antibody, human IgG1, kappa)
heavy: QVTLKESGPVLVKPTETLTLTCTVSGIDLSHDDISWVRQAPGKGLEWVGIISYAGSTYYASWAKGRLTISKDTSKNQVVLTMTNMDPVDTATYYCARGVPAYSHGGDLWGQGTLVTVSSASTKGPSVFPLAPSSKSTSGGTAALGCLVKDYFPEPVTVSWNSGALTSGVHTFPAVLQSSGLYSLSSVVTVPSSSLGTQTYICNVNHKPSNTKVDKKVEPKSCDKTHTCPPCPAPELLTGPIVFLFPPKPKDTLMISRTPEVTCVVVDVSDEDPEVKFNWYVDGVEVHNAKTKPREEQYNSTYRVVSVLTVLHQDWLNGKEYKCKVSNKALPKPIEKTISKAKGQPREPQVYTLPPSREEMTKNQVSLTCLVKGFYPSDIAVEWESNGQPENNYKTTPPVLDSDGSFFLYSKLTVDKSRWQQGNVFSCSVMHEALHNHYTQKSLSLSP
light: DIVMTQSPATLSLSPGERATLSCTSSQSVYHANWLSWFQQKPGQPPKLLIYWASTLAYGVPSRFSGSGSGTDFTLTISSLQPEDAATYYCAGGYGGGRYAFGQGTKVEIKRTVAAPSVFIFPPSDEQLKSGTASVVCLLNNFYPREAKVQWKVDNALQSGNSQESVTEQDSKDSTYSLSSTLTLSKADYEKHKVYACEVTHQGLSSPVTKSFNRGEC
notes: as for B1
B8: M103205H795-MY389/M103202L889-SK1 (antibody, human IgG1, kappa)
heavy: QVTLKESGPVLVKPTETLTLTCTVSGIDLSHDDISWVRQAPGKGLEWVGIISYAGSTYYASWAKGRLTISKDTSKNQVVLTMTNMDPVDTATYYCARGVPAYSHGGDLWGQGTLVTVSSASTKGPSVFPLAPSSKSTSGGTAALGCLVKDYFPEPVTVSWNSGALTSGVHTFPAVLQSSGLYSLSSVVTVPSSSLGTQTYICNVNHKPSNTKVDKKVEPKSCDKTHTCPPCPAPELLTGPLVFLFPPKPKDTLMISRTPEVTCVVVDVSDEDPEVKFNWYVDGVEVHNAKTKPREEQYNSTYRVVSVLTVLHQDWLNGKEYKCKVSNKALPKPIEKTISKAKGQPREPQVYTLPPSREEMTKNQVSLTCLVKGFYPSDIAVEWESNGQPENNYKTTPPVLDSDGSFFLYSKLTVDKSRWQQGNVFSCSVMHEALHNHYTQKSLSLSP
light: DIVMTQSPATLSLSPGERATLSCTSSQSVYHANWLSWFQQKPGQPPKLLIYWASTLAYGVPSRFSGSGSGTDFTLTISSLQPEDAATYYCAGGYGGGRYAFGQGTKVEIKRTVAAPSVFIFPPSDEQLKSGTASVVCLLNNFYPREAKVQWKVDNALQSGNSQESVTEQDSKDSTYSLSSTLTLSKADYEKHKVYACEVTHQGLSSPVTKSFNRGEC
notes: as for B1

Target: T1, cynomolgus monkey FcγRIIb extracellular …
Experiment: SPR (BIACORE), antibody captured, FcgR analyte

**Q.** Which Kd does the source give for B1 here?
**A.** 830 nM

**Q.** For B2, which Kd is on record?
**A.** 630 nM

**Q.** B3 was tested. Which Kd did it give?
**A.** 700 nM

**Q.** How did the Kd turn out when B4 was run?
**A.** 450 nM

**Q.** Which Kd does the source give for B5 here?
**A.** 390 nM

**Q.** B6 was tested. Which Kd did it give?
**A.** 760 nM

**Q.** Which Kd does the source give for B7 here?
**A.** 760 nM

**Q.** For B8, which Kd is on record?
**A.** 700 nM
